# ± gives the uncertainty stated by the source.
# Assay: amyloid nucleation score (Sup35N fusion, yeast selection) (log enrichment); library NNK2; higher = more nucleation; inactive = no reads after selection
# Outline: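 On medium lacking adenine and uracil, psi-negative yeast expressing peptides of 20 random codons fused to Sup35N were grown 7 days at 30°C after a 24-hour induction with 100 μM copper sulfate. Illumina sequencing of input and output plasmid inserts gave the reads, and sequences under 100 input reads were excluded. The nucleation score is the DiMSum log enrichment of output over input reads, centred on the mode score of non-aggregating sequences.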
row,Substance,amyloid nucleation score
1,SVYREWLPSSSRVWCMSLSG,-0.317 ± 0.63
2,SVYRFFAKSKMKCWGLHNGG,-0.63 ± 0.55
3,SWALKRAPVGNR,inactive
4,SWFRFCMYWFSDCRNILGS,4.58 ± 0.051
5,SWGGLSKGYCLFQSWRVVLG,3.75 ± 0.054
6,SWGSVRNRMCMSGGRKSSDA,inactive
7,SWLRMSTDVIGLRWFDGNA,4.84 ± 0.065
8,SWLYLPWLLLQARILHR,-0.197 ± 0.24
9,SWNELSRFLVILLFQLSRDR,-0.795 ± 0.43
10,SWRIDNVGSRWSTMVCC,6.09 ± 0.063
11,SWVLLAY,0.45 ± 0.8
12,SWVSFDKSLHMGVVYDRLRR,inactive
13,SWVVL,-0.563 ± 0.79
14,SWWAY,0.69 ± 0.62
15,SYARIYFWDEILENPSPVWE,-0.378 ± 1
16,SYASWYCLYCKNSGQGFLFE,7.948 ± 0.026
17,SYAYVSKMYVKYCQLKFI,-0.921 ± 0.78
18,SYDPGITSSWMVRIRRVRMC,-0.001 ± 0.49
19,SYDSPPSEHLVPVAQSISVP,1.17 ± 0.44
20,SYEVNIYKLRLQGSSSGF,3.44 ± 0.066
21,SYFDMWIGW,1.2 ± 0.47
22,SYFHNHWFCLRQFRVDASWC,-0.047 ± 0.46
23,SYFSCCLFFRAFSTFFGVIP,3.33 ± 0.11
24,SYGFQVLDAKDVLMLAFVWA,0.255 ± 1.1
25,SYGIAWTIMT,-0.701 ± 0.45

row,Substance,amyloid nucleation score
1,SYGNEFMM,0.363 ± 0.57
2,SYHNVG,-0.974 ± 0.61
3,SYHRQRSNTFTAKLQCSRSW,0.307 ± 0.56
4,SYIGMNQNCFSEQLNNAQTG,0.606 ± 0.18
5,SYSFRVVDWVYILTYLRKFE,1.65 ± 0.33
6,SYSLIVE,0.919 ± 0.48
7,SYSVQAALVCVFGGCNHVGS,9.383 ± 0.048
8,SYVAFLSTTRASSMI,inactive
9,SYVVPGFISASFYLCYCTSK,3.03 ± 0.12
10,SYVYMREKSIGTDSAVLRSM,inactive
11,SYWIADTNRSGNRRLSCGRC,0.266 ± 1
12,SYYEFVVNLGKPAISVDSIT,0.349 ± 0.51
13,TAAPSEVMPIMALRPPKESS,-0.541 ± 0.79
14,TAAVILLIVNRDANA,1.94 ± 0.14
15,TACSQVVGVIHIIVGRGRSR,7.292 ± 0.045
16,TADLDIDGPVS,4.64 ± 0.094
17,TAGFRILRRHFSIGVGSRTW,inactive
18,TAKDTPCAVRIIFEFLDGLV,7.279 ± 0.056
19,TAKLFDISTCKCPD,-0.105 ± 0.79
20,TALDAGHA,-1.19 ± 0.45
21,TASHTWSVVCFTWYRCLVND,4.98 ± 0.051
22,TASMGVVVSDENWE,0.633 ± 0.14
23,TATGTIECMVYPLTFSSLSP,-0.1 ± 1
24,TCGLFTA,1.2 ± 0.44
25,TCICEVHTPTSSMISPSMSF,-1.51 ± 0.75

row,Substance,amyloid nucleation score
1,TCNSGRYSRAACAWWN,-0.114 ± 0.45
2,TCPCRYLDVNIDAMFVTMDI,7.789 ± 0.056
3,TCTVASLYLGAFDWNYVEAV,3.08 ± 0.12
4,TCYMVWSLYC,3.93 ± 0.067
5,TDCTLSGKRLRYLNGDCFKK,-1.13 ± 0.55
6,TDFCSHKTWLSAVGISV,0.037 ± 0.23
7,TDGVLFQLVDSKFV,-1.25 ± 0.64
8,TDKCVTTFNCYNLHRR,1.62 ± 0.15
9,TDLYTCDVLRVLVCAH,-0.011 ± 0.45
10,TDMWPVYANRVFYNMSWSRP,inactive
11,TDNNNVYYVYSLQVIPTVSD,-0.496 ± 0.32
12,TDSYPVLDLHPGSYRVH,0.397 ± 0.39
13,TEGHVNSQIRWNLVY,-0.348 ± 0.36
14,TELKEGLYAGIHFNTGTG,-0.457 ± 0.64
15,TESIFCSYSWVCVGVMSNYD,5.1 ± 0.071
16,TETNRDWRLGDDW,5.293 ± 0.047
17,TFAQYPSLGNSFSGWGYCVK,-2.02 ± 0.75
18,TFCEWMLWNTLCQVLSVPPY,6.423 ± 0.045
19,TFCICPFNAEV,7.35 ± 0.029
20,TFHGNYFVDTSA,inactive
21,TFLQPTLEVSLL,-0.612 ± 0.48
22,TFMFDHRIGISDGLSTIMVI,0.923 ± 0.81
23,TFMRKCIFMFLFVIFSFYSS,2.03 ± 0.11
24,TFNISLAWCEFFSHIFLLN,inactive
25,TFSQYTWEFIYN,3.68 ± 0.11

row,Substance,amyloid nucleation score
1,TFYCTSCFLLMSVMSFHRLL,1.89 ± 0.13
2,TGAFPDCLALMYKGAEEVER,0.011 ± 0.28
3,TGCRVGHCIYVYVSEVSSNP,0.903 ± 0.34
4,TGCVDVAEMVNP,0.138 ± 0.48
5,TGFGTSMFSKLYVNVNYL,5.37 ± 0.072
6,TGGGATLRRILRHLSVGSDR,-0.005 ± 0.79
7,TGLDFGNLLLARCMSRV,0.43 ± 0.32
8,TGLKIG,0.038 ± 0.29
9,TGLTLVV,-0.094 ± 1
10,TGRISVSG,0.14 ± 1
11,TGSRNIWTRVVFLYCFRVHG,-0.939 ± 0.54
12,TGSWNGCVKWASRLKRAGGR,0.643 ± 0.64
13,TGTFSAKLVDTPEGYYLLSV,-1.01 ± 0.41
14,TGVFHSVCNIWCFHSKDPSN,7.54 ± 0.076
15,THCFCGTNGWVMWGSPEGLA,0.179 ± 0.55
16,THMSEDGFVL,0.072 ± 0.34
17,TIAPGRRYENVNKGCERRFI,-1.76 ± 0.76
18,TICFIFHSFRLFRIDAY,4.54 ± 0.098
19,TIFIGVRVPS,-0.224 ± 0.63
20,TIFWLTISCQRYRD,1.46 ± 0.13
21,TIGEVYGYLRSWIYWGSEST,0.154 ± 0.46
22,TIGTVMNSLSHFLRPAR,1.15 ± 0.21
23,TIHRVVWCLL,-0.645 ± 0.56
24,TIILMGYLFWICRQSVR,-0.449 ± 0.38
25,TIKRLLKDFPLIFLRISGST,inactive

row,Substance,amyloid nucleation score
1,TILGSLHFNFVKCHSKCSYF,7.238 ± 0.061
2,TILKDSTPAVYNVRMRFKAW,inactive
3,TIQAYICPLVSKAYWWGVEY,6.427 ± 0.032
4,TIYMMSRDFRF,4.748 ± 0.028
5,TKEIVEGINTQLYRWTLFG,-0.429 ± 0.25
6,TKLEYNTE,0.118 ± 0.77
7,TLATTGTHCVYYKNSWCKFR,-0.498 ± 0.63
8,TLAWRSGTRRELKEECNGGW,1.19 ± 0.59
9,TLDNIRFKLQTAGTAIMWRR,0.311 ± 0.24
10,TLEKSFPLEFVV,0.204 ± 0.65
11,TLFNMLDYSVVWYLFTSIHR,-1.44 ± 1.1
12,TLGLHGED,0.23 ± 0.31
13,TLGREVSKVQNATSFLPMQA,0.926 ± 0.29
14,TLHLWGSK,1.38 ± 0.42
15,TLHNYCYPMIRSCGQSPGRF,0.208 ± 1.1
16,TLHWK,-0.667 ± 0.33
17,TLIDYYFYYCYGKSVDKAGL,-0.749 ± 0.45
18,TLLSNTSKLFLLHNYHQWVM,0.062 ± 0.74
19,TLMGNVRTCPPAGRRATTAS,0.966 ± 0.22
20,TLWHARTVKRDKWSSYGVGR,1.83 ± 0.12
21,TLWLMPDLRTRLEAGCRYKT,-0.08 ± 0.44
22,TLYSVSLGKEFYYG,0.192 ± 0.46
23,TMFASHFCWYALYYVCILNF,0.066 ± 1
24,TMHCSSLPQTSLVGTNHNAD,-0.327 ± 0.28
25,TMIKSQMLYFSGLATRLRLG,0.098 ± 0.26

row,Substance,amyloid nucleation score
1,TMIRYVERMVDNLFRNCRLP,0.827 ± 0.2
2,TMLSESTVQTKRVRMQESRR,7.03 ± 0.071
3,TMSHEFV,0.085 ± 0.6
4,TMSPCINASIFWDYA,3.08 ± 0.05
5,TNAACSPLTCGHQMAVSPNY,0.358 ± 0.32
6,TNADGRTGT,-0.385 ± 0.39
7,TNCGRVINRSSVVHAFNYGV,inactive
8,TNDLIRKFTLYMNQCDFNWS,-0.633 ± 1.1
9,TNFYWY,3.23 ± 0.065
10,TNLCVPFVYEHFGCYGYN,3.83 ± 0.12
11,TNRGSQNGLMFFDRSWKGYG,-0.467 ± 0.5
12,TNSSRISLNLGVLRGAQKDS,-1.08 ± 0.45
13,TNTSFQRCGLWLTMGYGRYH,-0.286 ± 0.3
14,TNVINRCLSPCFGRSLFNIV,-0.805 ± 1.1
15,TPAWQLYGHTVLAGVQKNMV,-0.077 ± 0.37
16,TPMFHILLYFLNWCYCILVA,0.165 ± 1
17,TPSDLVDINMDHAFCELCRR,0.413 ± 0.45
18,TPSKKDGECWNFYRTMWFTG,-0.492 ± 0.79
19,TQDDAHQVRGQCVPSENIGP,1.96 ± 0.21
20,TRADDL,0.205 ± 0.4
21,TRAWITWAKVWRSQMNRGKA,0.699 ± 0.54
22,TRDAVGVLTLSSTLTTCSTC,-0.26 ± 0.35
23,TRDCHYMVGRLMIEWFQSVW,-0.063 ± 0.21
24,TRDILGRGVDQFFIVSYRFN,-1.11 ± 0.45
25,TRDNST,0.32 ± 0.53

row,Substance,amyloid nucleation score
1,TRFILYLGCDE,-1.25 ± 0.54
2,TRNGWGSTGSLQRSQVSVWS,0.25 ± 0.42
3,TRPCMFFRIELISLSTVLAR,0.552 ± 0.46
4,TRSDMLVLLCIIMCFSYSYP,6.31 ± 0.09
5,TRSPEYNCRSVEGTVSDKDK,-0.832 ± 0.49
6,TRSTNVQLDPYFYLW,-1.16 ± 0.39
7,TRWCYSDFPMVKLFLLKFIT,0.416 ± 0.8
8,TRYIADRAVVSNRC,0.81 ± 0.31
9,TRYSILVDRRNRIFVVADPD,0.615 ± 0.32
10,TSAENRLMMAEARKYCVRSF,3.66 ± 0.087
11,TSCHRLWLLFMCIAGG,-0.199 ± 0.79
12,TSDLNNSSSMKAYSNEHSGC,0.411 ± 0.4
13,TSFGCWSQAYKMMRFDLCSV,-0.145 ± 0.21
14,TSFHYCCSR,6.146 ± 0.03
15,TSFLPELRGLYGRAIVARNY,-1.39 ± 1.1
16,TSGMNDITR,-0.093 ± 0.23
17,TSGQNESDA,0.578 ± 0.81
18,TSIILGFFLMTTLQN,inactive
19,TSLGNL,-0.825 ± 1.1
20,TSLSVVSGFLAFSGSPHSGT,4.39 ± 0.05
21,TSLVLCYLTIELSVLISSGN,0.221 ± 0.36

# Reference: the supplement of paper PMC12042874
